These results are taken from patent publication US5556780A, “CDNAS encoding mouse and rat type-2 angiotensin II receptors and their expression in host cells” (The Board of Trustees for the Leland Stanford Junior …, priority 1993, dated 1996).

Numbering of substitutions follows the chain as printed.

In assay [1] the test system is mouse AT1b receptor. Nature of the assay: Emulsion autoradiography of 125I-[Sar1,Ile8]-Ang II binding to transfected COS-7 cells (positive control). The note with it: 1 uM DuP753; 200 pM radioligand, 2 h, room temperature. On the procedure: cDNA prepared from size-fractionated (>1 kb) poly(A)^+ RNA (Sprague-Dawley whole rat fetus, 18 days postcoitum) was ligated into an expression vector pcDNAI (Invitrogen), and amplified in 900 pools of 1,000 clones. Plasmid DNA prepared from every 8 pools by the alkali lysis method was transfected over 2-3 h using DEAE-dextran/chloroquine into COS-7 cells grown on glass chamber slides (Nunc) (Mathews, L. S. & Vale, W. W. Cell 65, 973-982 (1991)). […] Cells were then washed four times with cold 50 mM Tris-HCl, pH 7.4, fixed with 0.1% glutaraldehyde at 4 C and subjected to emulsion autoradiography (Mathews, L. S. & Vale, W. W. Cell 65, 973-982 (1991)). […] Positive pool (RF904) which gave 20 DuP753-resistant positive cells was divided into subpools and rescreened, and after three rounds of screening a single clone pMRAT2 was isolated. Sequencing of both strands of clone pMRAT2 was done by the dideoxy chain termination method with Sequenase (USB).

The target in a further assay is T1, mouse AT2 receptor (Mus musculus, UniProt P35374).
T1 construct: expressed in transfected cells; host or cells: COS-7
T1 sequence (P35374 1-363): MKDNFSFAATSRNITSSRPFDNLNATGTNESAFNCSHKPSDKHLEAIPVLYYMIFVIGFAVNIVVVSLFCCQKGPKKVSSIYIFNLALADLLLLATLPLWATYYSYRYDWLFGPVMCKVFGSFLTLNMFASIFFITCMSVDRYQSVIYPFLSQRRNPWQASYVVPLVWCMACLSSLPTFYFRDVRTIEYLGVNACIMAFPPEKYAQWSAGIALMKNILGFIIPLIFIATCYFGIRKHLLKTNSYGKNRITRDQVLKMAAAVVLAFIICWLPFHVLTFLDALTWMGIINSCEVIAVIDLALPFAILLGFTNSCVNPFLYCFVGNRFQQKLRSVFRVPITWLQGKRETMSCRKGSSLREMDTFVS
Description: [125I]CGP42112A binding / displacement on membranes of COS-7 cells transfected with mouse AT2 receptor cDNA (MC5). The note with it: 0.2 nM [125I]CGP42112A. The text has this:
Materials. […] Louis, Mo.). […] Expression in COS-7 Cells and Ligand Binding Assay. […] The transfected cells were harvested and homogenized. The 100,000×g pellet of this homogenate was suspended and used as a membrane fraction.

The target of another assay is T2, rat AT2 receptor (Rattus norvegicus, UniProt P35351).
T2 construct: pMRAT2, a rat AT2 receptor full-length cDNA cloned into the expression vector pcDNA I; expressed in transfected cells; host or cells: COS-7 (transient)
T2 sequence (P35351 1-363): T1 sequence (P35374 1-363) with R18L, S40A, L88V, G352S
Nature of the assay: Radioligand binding / displacement of 125I-CGP42112A on membranes of pMRAT2-transfected COS-7 cells. The note with it: for order of inhibition potency (competition profiles): displacement of 125I-CGP42112A. On the procedure: cDNA prepared from size-fractionated (>1 kb) poly(A)^+ RNA (Sprague-Dawley whole rat fetus, 18 days postcoitum) was ligated into an expression vector pcDNAI (Invitrogen), and amplified in 900 pools of 1,000 clones. […] Sequencing of both strands of clone pMRAT2 was done by the dideoxy chain termination method with Sequenase (USB).
2 h after incubation at room temperature, bound and free ligands were separated with GF/C filters (Whatman). […] Each experiment was carried out at least twice in duplicate, and the results shown here represent one experiment.

Assay [2] has as its system cloned AT2 receptor. Description: Intracellular IP3 levels in AT2-transfected COS-7 cells (radioreceptor assay). Type of assay: cell-based, rat. The note with it: 1 uM Ang II, 15 sec, 37 C. On the procedure: (§1) Intracellular IP3 levels were measured using radioreceptor assay (NEN). […] Cell fluorescence was measured with excitation at 340 nm and 380 nm. Ionomycin (10 uM) and EGTA (10 mM) were used for calibration.

Assay [3] relates to cloned AT2 receptor. Nature of the assay: Intracellular calcium (fura-2) in AT2-transfected COS-7 cells. Type of assay: cell-based, rat. The note with it: 1 uM Ang II. On the procedure:
as §1
On the technique in general: A change in cytosolic calcium serves as a functional read-out for many receptors and channels.

The target in assay [4] is rat AT2 receptor (angiotensin II type 2 receptor), clone pMRAT2 (rat). Description: radioligand binding with DTT, membranes of COS-7 cells transfected with pMRAT2.
Assay [5] has as its target mouse AT2 receptor (angiotensin II type 2 receptor), clone MC5 (mouse). Description: radioligand saturation binding with Scatchard plot, membrane fraction of COS-7 cells transfected with mouse AT2 receptor cDNA.
Assay [6] concerns the target rat AT2 receptor (angiotensin II type 2 receptor), clone pMRAT2 (rat). Description: radioligand saturation binding, crude membranes of S293RAT2 cells (293 cells stably transfected with pMRAT2).
Assay [7] shares this target. Nature of the assay: radioligand saturation binding, crude membranes of COS-7 cells transiently transfected with pMRAT2.
The target in assay [8] is T3, rat AT2 receptor (angiotensin II type 2 receptor), clone pMRAT2 (rat).
T3 chain: T1 sequence (P35374 1-363) with R18L, S40A, L88V, G352S
Nature of the assay: expression cloning: emulsion autoradiography of transfected COS-7 cells, 200 pM radioligand with or without DuP753. On the procedure:
cDNA prepared from size-fractionated (>1 kb) poly(A)^+ RNA (Sprague-Dawley whole rat fetus, 18 days postcoitum) was ligated into an expression vector pcDNAI (Invitrogen), and amplified in 900 pools of 1,000 clones. Plasmid DNA prepared from every 8 pools by the alkali lysis method was transfected over 2–3 h using DEAE-dextran/chloroquine into COS-7 cells grown on glass chamber slides (Nunc) (Mathews, L. S. & Vale, W. W. Cell 65, 973–982 (1991)). […] Cells were then washed four times with cold 50 mM Tris-HCl, pH 7.4, fixed with 0.1% glutaraldehyde at 4 C and subjected to emulsion autoradiography (Mathews, L. S. & Vale, W. W. Cell 65, 973–982 (1991)). […] Sequencing of both strands of clone pMRAT2 was done by the dideoxy chain termination method with Sequenase (USB).

Assay [9] has as its target mouse AT1b receptor (mouse, UniProt P29755). Nature of the assay: emulsion autoradiography of COS-7 cells transfected with the mouse AT1b receptor clone, 200 pM radioligand.

With `CCCCc1nc(Cl)c(CO)n1Cc1ccc(-c2ccccc2-c2nn[nH]n2)cc1` [DuP753], the “effect on positive staining (125I-[Sar1,Ile8]-Ang II binding)” value in the assay with mouse AT1b receptor [1] is listed as “completely abolished”. Moreover, the “competition of [125I]CGP42112A binding” value on mouse AT2 receptor (at a concentration up to 10^-5 M) is “virtually inactive”. Besides, the “effect in competition (displacement of 125I-CGP42112A)” value at rat AT2 receptor (150 pM radioligand) is “no effect”.

Turning to `Cc1cc(Cn2cnc3c2C[C@@H](C(=O)O)N(C(=O)C(c2ccccc2)c2ccccc2)C3)ccc1N(C)C` [PD123319], on mouse AT2 receptor, the “rank order of competition of [125I]CGP42112A binding” value (shortened to “rank order”) was “[Sar^1,Ile^8 ]-Ang II=CGP42112A≥Ang II>PD123319>Ang I”. For the same molecule, at rat AT2 receptor (150 pM radioligand), the “order of inhibition potency (competition profiles)” value (from here on “order of inhibition potency”) was “[Sar^1,Ile^8 ]-Ang II=CGP42112A≥Ang II>PD123319^10,15 >Ang I”.

For “Ang I: Ang I, purchased from Sigma (DRVYIHPFHL)”, the “rank order” value in the assay with mouse AT2 receptor is “[Sar^1,Ile^8 ]-Ang II=CGP42112A≥Ang II>PD123319>Ang I”. Also, the “order of inhibition potency” value in the assay with rat AT2 receptor (150 pM radioligand) was “[Sar^1,Ile^8 ]-Ang II=CGP42112A≥Ang II>PD123319^10,15 >Ang I”.

Take “Ang II: Angiotensin II is an octapeptide hormone”: the “increase of IP3” value in the assay on cloned AT2 receptor [2] was “failed to increase”. Also, the “increase of intracellular calcium” value in the assay on cloned AT2 receptor [3] was “failed to increase”.

Regarding “Ang II: Angiotensin II is an octapeptide hormone (DRVYIHPF)”, the “rank order” value with mouse AT2 receptor was “[Sar^1,Ile^8 ]-Ang II=CGP42112A≥Ang II>PD123319>Ang I”.

In the case of CGP42112A, on mouse AT2 receptor, the “rank order” value was “[Sar^1,Ile^8 ]-Ang II=CGP42112A≥Ang II>PD123319>Ang I”. The “order of inhibition potency” value at rat AT2 receptor (150 pM radioligand) was “[Sar^1,Ile^8 ]-Ang II=CGP42112A≥Ang II>PD123319^10,15 >Ang I”. The “increase of binding affinity by DTT” value at rat AT2 receptor (with DTT) was 50-100%.

With CGP42112A (unlabelled) (ligand), the increase of binding affinity by DTT in [4] was in the range of 50 to 100%.

Take “[Sar^1,Ile^8 ]-Ang II: a non-selective Ang II receptor antagonist”: the “rank order” value in the assay with mouse AT2 receptor was “[Sar^1,Ile^8 ]-Ang II=CGP42112A≥Ang II>PD123319>Ang I”. Also, the “order of inhibition potency” value in the assay with rat AT2 receptor (150 pM radioligand) was “[Sar^1,Ile^8 ]-Ang II=CGP42112A≥Ang II>PD123319^10,15 >Ang I”.

With [^125 I]CGP42112A (ligand), the Kd (as a rule, the constant that tells how readily two partners part at equilibrium) was 0.12 nM in [5], 0.18 nM in assay [6] and 0.17 nM in assay [7].

B1: ^125 I-[Sar^1,Ile^8]-Ang II (peptide)
peptide: GRVYIHPI
modifications: Sar at position 1, Ile at position 8, 125I label, as printed ^125 I-[Sar^1,Ile^8]-Ang II
For the molecule B1, the binding result (in assay [8]; with mouse AT1b receptor [9]) was “binds” throughout.
